Test results taken from patent US5932697A, “Synthetic antifreeze peptide” (Virginia Tech Intellectual Properties, Inc., priority 1991, dated 1999).

System: JM109 (DE3)
Experiment: Studies of cell viability in strains expressing WF8R fusion proteins
Type: cell-based, E. coli
Conditions: JM109 (DE3) [pX28] or [pX284], intracellular expression as P10 fusion; applicants' conclusion from cell viability studies
Excerpt: The pX28 and pX284 were transformed into JM109 (DE3). The proteins produced in either the JM109 (DE3) [pX28] or in the JM109 (DE3) [pX284] after induction by IPTG in mid- or late-logarithmic growth phase, have been analyzed by sodium dodecyl sulfate (SDS)--polyacrylamide gel electrophoresis (SDS-PAGE). […] Studies of cell viability in these strains have shown that both strains are adversely affected with respect to growth and stability of the plasmid (these effects were more pronounced in the pX28 harboring strain). […] To avert this problem the applicants decided to protect the fusion protein from intracellular degradation, as well as to protect the cells from the toxicity of WF8R, by adding to the fusion a C-terminal end derived from E. coli β-galactosidase.

B1: WF8R: synthetic 98 amino acid antifreeze peptide with eight eleven-amino-acid repeats, modeled on winter flounder AFP, expressed in E. coli (protein)
chain: MSTASDAAAAAAATAATAAAAAAATAATAAAAAAATAATAAAAAAATAATAAAAAAATAATAAAAAAATAATAAKAAALTAANAAAAAAATAAAAARG
toxicity to the cells (growth and stability of the plasmid adversely affected): toxic to the cells
